Our source for the % conv. values is patent publication US20110263816A1.

Assay [1] concerns the target E3gX, X = Ser.
The target of assay [2] is E3gX, X = Glu.
In assay [3] the target is E3gX, X = Gln.
For assay [4], the target named is E3gX, X = Asp.
In assay [5] the target is E3gX, X = Tyr.
For assay [6], the target named is E3gX, X = His.
In assay [7] the target is E3gX, X = Cys.
In assay [8] the target is E3gX, X = Arg.
The target of assay [9] is E3gX, X = Trp.
The target in assay [10] is E3gX, X = Asn.
Assay [11] deals with E3gX, X = Phe.
In assay [12] the target is E3gX, X = Lys.

No end group written: not given here.

B1: K3a,eRh2 (peptide)
peptide: KISALKQKESALEQKISALEK
modifications: also: Rh2(OAc)2 dirhodium centre bound through two Glu side chains, places not given here
For B1, the % conv. at 24 h (covalent modification with diazo 1, MALDI-TOF MS) was 28 % conv in [1]; 76 % conv in assay [2]; more than 95 % conv in [3]; 53 % conv in [4]; more than 95 % conv in [5]; 17 % conv in assay [6]. The % conv. at 24 h (covalent modification with diazo 1, MALDI-TOF MS) in assay [7] is 78 % conv; in [8], 73 % conv; in assay [9] it was more than 95 % conv; in assay [10], 70 % conv; in [11], more than 95 % conv; in [12] it was 8 % conv.
